Test results published in patent US20080176792A1, “VEGFR-1 TARGETING PEPTIDES” (priority 2000, published 2008).
Bridge positions count the residues as written; N and C are the ends. Ends that are not written are not given here.

Assays:
rat NRP-1 = molecular target: T1, rat NRP-1 (Rattus norvegicus, UniProt Q9QWJ9); assay: Phage binding to immobilized purified receptor, with competition; conditions: competitor pre-incubated with immobilized receptor; PDGF-BB up to 200 ng/ml
T1 construct: purchased R&D Systems Minneapolis, Minn
Description: (§1) Human VEGFR-1, human VEGFR-2, rat NRP-1, and rat NRP-2 (1 μg in 50 μl of PBS) were immobilized on microtiter well plates overnight at 4° C. The wells were washed twice with PBS, blocked with PBS containing 3% BSA for 2 h at room temperature, and then incubated with 10^9 TU of either […] (SEQ ID NO:6) phage, […] (SEQ ID NO:11) phage, or fd-tet phage in 50 μl of PBS/1.5% BSA. After 1 hr at room temperature, wells were washed nine times with PBS and phage were recovered by bacterial infection. Serial dilutions were plated onto Luria-Bertani (LB) medium supplemented with tetracycline. VEGF165, PDGF-BB, or synthetic peptides were used at the indicated concentrations and pre-incubated with the immobilized proteins to evaluate competitive inhibition of phage binding. ELISA with either polyclonal anti-VEGFR-1 serum or anti-human IgG (VEGFR-2, NRP-1, and NRP-2) confirmed the presence and concentration of the immobilized receptors on the microtiter plates. […] Following three washes, VEGF165 binding was evaluated by ELISA by using anti-VEGF specific antibodies (data not shown).

human VEGFR-1 = molecular target: T2, human VEGFR-1 (Homo sapiens, UniProt P17948); assay: as above; conditions: for blocking of clone 19 phage binding to VEGF-R1 by competitor: competitor pre-incubated with immobilized receptor, PDGF-BB up to 200 ng/ml
T2 construct: purchased Oncogene Research Products, Boston, Mass
Description: as §1

porcine bladder mucosa = assay: Dot blot chamber assay after removal of the GAG-layer; format: cell-based; conditions: 0.1M HCl for 2 min; relative to untreated mucosa set to 1
Description: FIG. 10. Influence of the GAG-layer on phage binding. In the dot blot chamber assay portions of a porcine bladder mucosa were treated with 0.1M HCl for 2 min prior to remove the GAG-layer. Binding to treated surface is given relative to untreated surface, that was set as 1. Bound phage were detected after intensive washing by infection with log phase K91 bacteria and plating of serial dilutions.
Removal of the glucosaminoglycan- (GAG-) layer on intact mucosa samples was performed as a dot blot chamber assay. Half of the wells were incubated with 200 μl 0.1M HCl per well for 2 min, intensely rinsed with blocking solution and both parts blocked as before. Results are given relative to fd-tet phage to untreated mucosa, that was set to 1.
Using the same assay the influence of the glucosaminoglycan (GAG) layer on binding of several phage to intact mucosa was examined. The GAG-layer was removed as described above. Half of the mucosa of human ureter and porcine bladder specimens were treated inside the dot blot chamber with […] for 2 min, extensively washed and the binding assay performed as before.

KS1767 cells = assay: BRASIL binding of phage to KS1767 cells, with synthetic peptide competition; format: cell-based; conditions: for effect of soluble peptide on RGD-4C phage binding to KS1767 cells: competition experiment
Description: FIG. 2A. BRASIL method optimization. A single-cell suspension of Kaposi sarcoma-derived cells (KS1767) was incubated with increasing titers of a phage displaying an alpha v integrin-binding motif (RGD-4C phage) or a control phage with no peptide insert (Fd phage). KS1767 cells were chosen because they express high levels of alpha v integrins. Cells and phage were incubated for 4 hours on ice (to prevent phage internalization) and centrifuged for 10 minutes at 10,000 g. The phage bound to the KS1767 cells were recovered by infection of a host E. coli, and plated in LB/tet agar plates at 37° C. overnight. Finally, the phage transducing units were counted. Extremely low backgrounds were observed. Under non-saturated conditions, a conservative mean estimate of the enrichment of RGD-4C phage in relation to Fd phage is 500-1000. This experiment was repeated three times with similar results. Mean and standard deviation are shown.
Cells were harvested with phosphate-buffered saline (PBS) and 5 mM EDTA, washed with MEM, and re-suspended in MEM containing 1% BSA at 10^6 cells/ml and incubated with phage in 1.5 ml Eppendorf tubes. After 4 h, 100 μl of the cell-phage suspension was gently transferred to the top of a non-miscible organic lower phase (200 μl in a 400 μl-Eppendorf tube) and centrifuged at 10,000 g for 10 minutes. The preferred organic phase combination consisted of a mixture of dibutyl phthalate:cyclohexane (9:1 [v/v]; ρ=1.03 g/ml). BRASIL has been attempted with other phthalate admixtures with the appropriate density (for example, dibutyl phthalate:diisooctyl phthalate; 4:6 [v/v]) with similar results. The tube was snap frozen in liquid nitrogen, the bottom of the tube sliced off, and the cell-phage pellet transferred to a new tube. Bound phage were rescued by infection with 200 μl of E. coli K91kan host bacteria in log phase. To evaluate binding specificity, phage and cells were incubated with the cognate or control synthetic peptides for competition assays.
KS1767 cells were detached with cold EDTA and re-suspended in MEM containing 1% BSA. […] The cell suspension was incubated with RGD-4C phage or a control phage with no peptide insert (fd-tet phage). Increasing amounts of either phage were added to the cells in suspension and the cell-phage admixture was incubated for 4 hr on ice. BRASIL was performed on ice to minimize post-binding events such as ligand-receptor internalization by the target cells. The cells were separated by centrifugation through the organic phase as described above. Bound phage were recovered and phage TU were counted. To compare BRASIL to conventional cell panning methods that require an additional washing step, 200 μl of the cell suspension were incubated with phage for 4 hr on ice. […]

[1] = molecular target: alpha v integrins on KS1767 cells (Kaposi sarcoma-derived cell line) (UniProt P06756); assay: BRASIL, phage on KS1767 cells in suspension, transducing units recovered
RT4 tumor cells = assay: Phage attachment to subconfluent cell monolayer, with peptide competition; format: cell-based, human; conditions: increasing amounts of peptide
Description: A subconfluent monolayer of RT4 tumor cells was incubated with 1×10^8 T.U. of VHALES (SEQ ID NO:25) phage per well in presence of increasing amounts of VHALES (SEQ ID NO:25) and control peptide. […] Bound phage were detected after intensive washing by infection with log phase K91 bacteria and plating of serial dilutions.
All cells were grown to subconfluency in 48 well plates and free binding sites were blocked with 800 μl 30% FCS/DMEM (blocking medium) for 1 hour at 37° C. The blocking solution was then replaced by 200 μl 10% FCS/DMEM (washing medium) containing 1×10^8 cfu of each phage per well. After incubation for 2 hours at 4° C. to prevent unspecific endocytosis, unbound phage were removed by washing 7 times with 500 μl washing medium. For competition experiments increasing concentrations of the corresponding peptide or a control peptide (CARAC, SEQ ID NO:5) were added during the incubation. Bound phage were determined by infection with 500 μl log phase K91 culture and plating of serial dilutions.

[2] = molecular target: T3, recombinant human VEGFR-1 (human, UniProt P17948 27-758, limits assumed); assay: competition of clone-19 phage binding to immobilized receptors; reference is NRP-1 (not shown)
T3 construct: Bought; immobilized on microtiter wells (1 ug in 50 ul PBS); also called Flt1
Description: (§2) Human VEGFR-1, human VEGFR-2, rat NRP-1, and rat NRP-2 (1 μg in 50 μl of PBS) were immobilized on microtiter well plates overnight at 4° C. The wells were washed twice with PBS, blocked with PBS containing 3% BSA for 2 h at room temperature, and then incubated with 10⁹ TU of either […] […] (SEQ ID NO:11) phage, or fd-tet phage in 50 μl of PBS/1.5% BSA. After 1 hr at room temperature, wells were washed nine times with PBS and phage were recovered by bacterial infection. Serial dilutions were plated onto Luria-Bertani (LB) medium supplemented with tetracycline. VEGF₁₆₅, PDGF-BB, or synthetic peptides were used at the indicated concentrations and pre-incubated with the immobilized proteins to evaluate competitive inhibition of phage binding.

recombinant rat NRP-1/Fc = molecular target: T4, recombinant rat NRP-1/Fc (rat; human, UniProt Q9QWJ9 22-854, limits assumed); assay: competition of clone-19 phage binding to immobilized NRP-1 (not shown)
T4 construct: Bought receptor/Fc chimera; also called rat Neuropilin-1; neuropilin-1; not shown: Fc region of human IgG1
T4 sequence (looked up): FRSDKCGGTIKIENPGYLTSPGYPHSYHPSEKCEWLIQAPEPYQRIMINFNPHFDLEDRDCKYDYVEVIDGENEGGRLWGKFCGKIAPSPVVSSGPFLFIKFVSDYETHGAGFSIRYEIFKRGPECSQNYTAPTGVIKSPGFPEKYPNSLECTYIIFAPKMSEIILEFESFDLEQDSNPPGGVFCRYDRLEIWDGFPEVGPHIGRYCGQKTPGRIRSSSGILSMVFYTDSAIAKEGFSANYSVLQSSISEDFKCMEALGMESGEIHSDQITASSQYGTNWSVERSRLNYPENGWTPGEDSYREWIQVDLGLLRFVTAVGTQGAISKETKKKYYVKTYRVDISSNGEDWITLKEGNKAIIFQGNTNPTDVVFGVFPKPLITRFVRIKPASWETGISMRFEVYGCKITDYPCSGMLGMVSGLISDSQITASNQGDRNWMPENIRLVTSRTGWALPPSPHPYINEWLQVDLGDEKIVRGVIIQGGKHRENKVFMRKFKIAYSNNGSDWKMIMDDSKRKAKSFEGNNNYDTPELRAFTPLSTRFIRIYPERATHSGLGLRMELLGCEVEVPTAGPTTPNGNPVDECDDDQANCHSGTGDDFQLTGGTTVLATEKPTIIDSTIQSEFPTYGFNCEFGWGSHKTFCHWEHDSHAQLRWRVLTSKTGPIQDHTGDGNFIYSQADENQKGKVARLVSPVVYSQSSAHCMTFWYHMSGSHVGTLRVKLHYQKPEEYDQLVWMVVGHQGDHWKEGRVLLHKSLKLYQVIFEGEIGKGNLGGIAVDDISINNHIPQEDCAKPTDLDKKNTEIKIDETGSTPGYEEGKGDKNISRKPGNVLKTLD
Description: as §2

[3] = molecular target: alpha v integrins on KS1767 cells (Kaposi sarcoma-derived cell line) (UniProt P06756); assay: BRASIL on KS1767 cells, competition with peptide in solution

alpha v integrins on KS1767 cells (Kaposi sarcoma-derived cell line), sequence (P06756 31-1048): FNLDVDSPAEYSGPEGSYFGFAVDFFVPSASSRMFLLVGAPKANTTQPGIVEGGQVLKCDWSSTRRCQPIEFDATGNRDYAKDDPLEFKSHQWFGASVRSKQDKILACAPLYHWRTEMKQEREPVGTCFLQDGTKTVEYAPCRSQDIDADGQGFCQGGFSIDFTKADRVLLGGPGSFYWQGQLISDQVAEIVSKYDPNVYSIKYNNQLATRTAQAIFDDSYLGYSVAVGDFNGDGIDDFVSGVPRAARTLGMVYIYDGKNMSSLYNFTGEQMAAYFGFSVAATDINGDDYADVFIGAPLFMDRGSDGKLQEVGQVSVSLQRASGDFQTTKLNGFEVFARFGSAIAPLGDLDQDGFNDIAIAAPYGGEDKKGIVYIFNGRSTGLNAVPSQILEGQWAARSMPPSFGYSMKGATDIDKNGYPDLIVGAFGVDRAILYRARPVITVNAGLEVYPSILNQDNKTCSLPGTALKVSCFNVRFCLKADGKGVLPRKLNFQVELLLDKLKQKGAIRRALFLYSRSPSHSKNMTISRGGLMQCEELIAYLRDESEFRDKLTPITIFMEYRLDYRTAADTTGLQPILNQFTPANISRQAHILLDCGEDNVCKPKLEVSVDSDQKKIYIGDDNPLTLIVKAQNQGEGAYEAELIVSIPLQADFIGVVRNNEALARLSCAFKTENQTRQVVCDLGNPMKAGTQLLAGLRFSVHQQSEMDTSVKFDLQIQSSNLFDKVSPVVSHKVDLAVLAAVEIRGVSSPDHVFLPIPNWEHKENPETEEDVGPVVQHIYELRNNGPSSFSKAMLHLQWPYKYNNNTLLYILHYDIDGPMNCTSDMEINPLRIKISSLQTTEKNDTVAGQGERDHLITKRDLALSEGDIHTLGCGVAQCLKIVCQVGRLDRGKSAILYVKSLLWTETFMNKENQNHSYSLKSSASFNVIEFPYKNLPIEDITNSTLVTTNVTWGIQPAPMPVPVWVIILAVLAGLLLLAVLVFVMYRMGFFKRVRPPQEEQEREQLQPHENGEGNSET
T2 sequence (P17948 27-1338): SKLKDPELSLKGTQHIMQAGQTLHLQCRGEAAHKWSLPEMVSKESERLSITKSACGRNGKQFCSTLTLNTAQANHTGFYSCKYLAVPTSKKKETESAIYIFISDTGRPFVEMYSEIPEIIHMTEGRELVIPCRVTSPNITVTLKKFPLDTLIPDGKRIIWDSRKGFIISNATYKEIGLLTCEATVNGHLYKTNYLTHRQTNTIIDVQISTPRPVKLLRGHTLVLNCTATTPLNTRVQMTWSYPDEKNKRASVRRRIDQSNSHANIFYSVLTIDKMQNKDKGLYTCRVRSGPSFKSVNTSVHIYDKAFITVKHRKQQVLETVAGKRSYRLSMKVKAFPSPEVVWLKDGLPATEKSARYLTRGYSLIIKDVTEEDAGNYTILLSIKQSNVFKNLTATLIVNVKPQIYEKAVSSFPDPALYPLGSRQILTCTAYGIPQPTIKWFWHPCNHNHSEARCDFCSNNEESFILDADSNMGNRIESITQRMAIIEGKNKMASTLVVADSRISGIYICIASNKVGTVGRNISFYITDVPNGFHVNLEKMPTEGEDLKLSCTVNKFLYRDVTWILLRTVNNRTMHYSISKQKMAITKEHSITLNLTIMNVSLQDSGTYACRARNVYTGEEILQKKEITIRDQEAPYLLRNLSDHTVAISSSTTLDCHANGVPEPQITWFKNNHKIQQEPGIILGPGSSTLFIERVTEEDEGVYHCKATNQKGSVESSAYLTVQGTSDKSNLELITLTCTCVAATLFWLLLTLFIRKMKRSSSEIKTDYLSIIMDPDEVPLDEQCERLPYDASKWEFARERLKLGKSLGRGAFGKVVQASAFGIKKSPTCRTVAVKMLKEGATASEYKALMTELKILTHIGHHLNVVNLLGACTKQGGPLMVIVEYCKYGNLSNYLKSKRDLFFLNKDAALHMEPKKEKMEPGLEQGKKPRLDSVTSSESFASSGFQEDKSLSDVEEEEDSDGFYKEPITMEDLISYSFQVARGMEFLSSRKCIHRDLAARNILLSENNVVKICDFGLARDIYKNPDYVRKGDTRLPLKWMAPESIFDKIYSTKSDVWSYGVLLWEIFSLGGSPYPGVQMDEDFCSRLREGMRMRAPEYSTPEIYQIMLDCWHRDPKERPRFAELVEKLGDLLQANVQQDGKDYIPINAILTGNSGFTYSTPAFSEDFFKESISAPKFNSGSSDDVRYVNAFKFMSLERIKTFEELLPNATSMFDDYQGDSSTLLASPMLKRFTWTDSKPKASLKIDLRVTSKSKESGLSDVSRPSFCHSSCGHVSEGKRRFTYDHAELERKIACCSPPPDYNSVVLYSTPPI
T1 sequence (Q9QWJ9 with tags, fused parts or gaps limits assumed): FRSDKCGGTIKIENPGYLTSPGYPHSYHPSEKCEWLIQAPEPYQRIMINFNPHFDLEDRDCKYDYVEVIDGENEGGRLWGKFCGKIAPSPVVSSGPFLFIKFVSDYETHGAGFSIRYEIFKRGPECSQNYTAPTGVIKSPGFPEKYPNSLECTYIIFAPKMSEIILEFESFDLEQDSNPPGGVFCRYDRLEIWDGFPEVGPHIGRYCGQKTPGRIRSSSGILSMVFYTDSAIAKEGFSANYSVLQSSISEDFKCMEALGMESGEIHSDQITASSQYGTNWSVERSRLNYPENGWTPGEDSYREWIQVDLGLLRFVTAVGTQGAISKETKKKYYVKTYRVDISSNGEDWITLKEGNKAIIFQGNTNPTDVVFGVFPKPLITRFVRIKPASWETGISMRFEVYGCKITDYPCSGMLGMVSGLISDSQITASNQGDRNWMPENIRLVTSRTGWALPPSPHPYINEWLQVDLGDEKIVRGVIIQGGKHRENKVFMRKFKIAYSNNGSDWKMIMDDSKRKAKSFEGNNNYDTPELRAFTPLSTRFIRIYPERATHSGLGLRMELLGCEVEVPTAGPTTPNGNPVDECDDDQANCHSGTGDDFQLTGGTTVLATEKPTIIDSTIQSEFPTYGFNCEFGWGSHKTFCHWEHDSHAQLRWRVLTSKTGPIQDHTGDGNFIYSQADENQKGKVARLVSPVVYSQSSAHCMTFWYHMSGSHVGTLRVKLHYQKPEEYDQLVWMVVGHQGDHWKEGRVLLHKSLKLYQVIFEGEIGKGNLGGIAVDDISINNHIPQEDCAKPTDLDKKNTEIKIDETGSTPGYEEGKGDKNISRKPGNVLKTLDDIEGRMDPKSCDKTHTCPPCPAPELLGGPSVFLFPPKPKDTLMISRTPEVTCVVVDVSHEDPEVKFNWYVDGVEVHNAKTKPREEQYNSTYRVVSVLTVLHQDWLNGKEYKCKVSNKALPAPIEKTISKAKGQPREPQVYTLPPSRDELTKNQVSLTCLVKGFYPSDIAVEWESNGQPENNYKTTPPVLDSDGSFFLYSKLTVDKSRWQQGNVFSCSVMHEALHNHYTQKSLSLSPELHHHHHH
T3 sequence (P17948 27-758 limits assumed): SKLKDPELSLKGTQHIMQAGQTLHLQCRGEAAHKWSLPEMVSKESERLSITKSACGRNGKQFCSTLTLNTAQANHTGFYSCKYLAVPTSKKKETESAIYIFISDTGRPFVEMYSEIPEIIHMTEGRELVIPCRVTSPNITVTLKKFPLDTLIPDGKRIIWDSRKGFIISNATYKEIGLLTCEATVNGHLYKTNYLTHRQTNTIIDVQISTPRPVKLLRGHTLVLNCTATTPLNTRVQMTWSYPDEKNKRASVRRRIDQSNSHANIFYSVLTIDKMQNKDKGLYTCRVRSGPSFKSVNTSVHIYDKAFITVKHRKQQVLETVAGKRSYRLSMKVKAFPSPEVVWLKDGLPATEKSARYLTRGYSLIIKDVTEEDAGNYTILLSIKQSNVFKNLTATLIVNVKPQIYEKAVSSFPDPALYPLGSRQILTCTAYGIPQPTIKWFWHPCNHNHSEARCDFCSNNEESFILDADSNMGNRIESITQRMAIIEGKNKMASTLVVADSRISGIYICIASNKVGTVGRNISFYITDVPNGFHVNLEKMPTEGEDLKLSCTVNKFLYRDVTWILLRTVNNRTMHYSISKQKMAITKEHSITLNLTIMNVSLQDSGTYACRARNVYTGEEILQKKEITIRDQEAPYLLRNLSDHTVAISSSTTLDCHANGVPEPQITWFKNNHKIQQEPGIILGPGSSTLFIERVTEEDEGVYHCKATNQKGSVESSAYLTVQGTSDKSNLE

Question: What does the source list for “PDGF-BB: PDGF-BB obtained commercially (R&D Systems) [reference compound]”?
Answer: blocking of clone 19 phage binding to NRP-1 by competitor (rat NRP-1): not; blocking of clone 19 phage binding to VEGF-R1 by competitor (human VEGFR-1): not

Question: CRIRMSAGC was tested. Which “change of phage binding after GAG-removal” value (porcine bladder mucosa) did it give?
Answer: unchanged

Question: CDCRGDCFC [RGD-4C peptide] was tested. Which “effect of soluble peptide on RGD-4C phage binding to KS1767 cells” value (from here on “effect of soluble peptide”) (KS1767 cells) did it give?
Answer: completely inhibited

Question: And the “inhibition of RGD-4C phage binding to KS1767 cells” value (KS1767 cells; synthetic peptide in solution)?
Answer: 99.99%

Question: With RGD-4C phage (peptide) as the molecule, how does the enrichment in relation to Fd phage [1] read?
Answer: 500 to 1000 fold

Question: And the ratio of RGD4C to Fd phage recovered (enrichment) [1]?
Answer: 100 to 500 fold

Question: VHALES [VHALES peptide] was tested. Which “effect of peptide on VHALES phage binding to RT4 tumor cells” value (from here on “effect of peptide”) (RT4 tumor cells) did it give?
Answer: reduced

Question: And the “effect of peptide” value (RT4 tumor cells; listed as VHALE)?
Answer: inhibited

Question: For `O=c1[nH]cc(F)c(=O)[nH]1` [CARAC, reference compound], which “effect of peptide” value (RT4 tumor cells) is on record?
Answer: unchanged and not

Question: What about the “effect of soluble peptide” value (KS1767 cells) of the same molecule?
Answer: no effect

Question: For GRGESP, which “effect of soluble peptide” value (KS1767 cells) is on record?
Answer: no effect

Question: What does the source list for CPQPRPLC?
Answer: blocking of clone 19 phage binding to NRP-1 by competitor (rat NRP-1): blocked; efficiency in blocking phage binding to VEGF-R1 relative to NRP-1 (human VEGFR-1; clone 19 phage, VEGF-R1 versus NRP-1): approximately 100 fold; blocking of clone 19 phage binding to VEGF-R1 by competitor (human VEGFR-1): blocked

B1: synthetic cognate peptide CPQPRPLC (SEQ ID NO:6) (peptide)
peptide: CPQPRPLC
modifications: disulfide 1-8 (inferred)
Question: What does the source list for B1?
Answer: fold efficiency in blocking phage binding, VEGF-R1 against NRP-1 [2]: ~100 fold; binding result (recombinant rat NRP-1/Fc): binds

B2: synthetic RGD-4C peptide, containing the targeting sequence … (SEQ ID NO:9) (peptide)
peptide: CDCRGDCFC
modifications: disulfide (positions not given here); not fully specified; also: cyclized, bonds not given here
Question: B2 was tested. Which percent inhibition of RGD-4C phage binding [3] did it give?
Answer: 100%
